The results in this text go back to the supplement of paper PMC9170038.

In series [1] the test system is MS2 coat protein. Put plainly: apparent KD of MS2 coat protein; designed switch direction (-1 OFF switch, 1 ON switch): 1; higher = weaker reporter binding. As to conditions: Eterna round: R98. Here is the method: (§1)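 RNA-MaP: designed FMN/MS2 RNA switches (84 nt design region) are transcribed on-chip within common flanks and titrated with SNAP-549-labelled MS2 coat protein (about 1-3000 nM) in 100 mM Tris pH 7.5, 80 mM KCl, 4 mM MgCl2, without or with 200 uM FMN. Median apparent KD per design; activation ratio = KD,OFF / KD,ON.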

The subject of series [2] is MS2 coat protein. Put plainly: apparent KD of MS2 coat protein; higher = weaker reporter binding. As to conditions: Eterna round: R101. As for the experimental part: as §1

Turning to “ACAUGAGGAUCACCCAUGUAAUAACAUCGGAUUGUCGAAGGUGAGGAUAUCGUACUGGAAUAUUUCGAGAAGGCACAUUCUCCU [JR_SSNG3_Sub075]”, the “apparent KD of MS2 coat protein” value was 25.9 nM with MS2 coat protein [1] (input ligand: FMN 200 uM) and 23.5 nM in the series with MS2 coat protein [1] (input ligand: none).
With “AUAGCAUACCGAGGAUAUUCAUAUAAUAAAUAAACAUGAGGAUCACCCAUGUGGCGAAAGCCUAGGGAGAAGGCGGAAUGCUAG [salish99_SSNG2_r2_101]”, the “apparent KD of MS2 coat protein” value in the series on MS2 coat protein [1] (input ligand: FMN 200 uM) amounted to 29.9 nM; in the series with MS2 coat protein [1] (input ligand: none), 237 nM.
Turning to “AUUAAUGGGUGAGGAUAUGCACAGGAUCACCGUGUAGAAGGCAUCAGGUAGAAGGUGCAGAGGAUCACCCUGUAAGGAUAUAUC [pwkr2 ssNG1 DX.13]”, the “apparent KD of MS2 coat protein” value in the series with MS2 coat protein [1] (input ligand: FMN 200 uM) was 858 nM; with MS2 coat protein [1] (input ligand: none), 998 nM.
The matching figures for “CAAUUAUGGUGAGGAUAUGCACAGGAUCACCGUGUAGAAGGCAUCAGGUAGAAGGUGCAGAGGAUCACCCUGUAAGGAUAUAUC [pwkr2 ssNG1 DX.17]”: 109 nM and 666 nM.
Turning to “CACUCAAGGUGAGGAUAUGCACAGGAUCACCGUGUAGAAGGCAUCAGGUAGAAGGUGCAGAGGAUCACCCUGUAAGGAUAUAUC [pwkr2 ssNG1 DX.11]”, the “apparent KD of MS2 coat protein” value in the series with MS2 coat protein [1] (input ligand: FMN 200 uM) worked out at 334 nM; with MS2 coat protein [1] (input ligand: none), 867 nM.
The matching figures for “CAUAGGUGUACAUGAGGAUCACCCAUGUCCCUGGUCAUUGGACAGGAUAUAUGGGCGGUCGCUUCAUAGAAGGGUUAAAUGGGA [Orenatis]”: 224 nM and 66.6 nM.
Turning to “CAUGAAGGGUGAGGAUAUGCACAGGAUCACCGUGUAGAAGGCAUCAGGUAGAAGGUGCAGAGGAUCACCCUGUAAGGAUAUAUC [pwkr2 ssNG1 DX.16]”, the “apparent KD of MS2 coat protein” value in the series on MS2 coat protein [1] (input ligand: FMN 200 uM) came out at 482 nM; in the series with MS2 coat protein [1] (input ligand: none), 1310 nM.
The corresponding values for “CCAGAGAUAUGAGGAUAUCGAGUGGAUAACACUCGAGAAGGCAUGUGAAAACAUGAGGAUCACCCAUGUGAUCAAUACUCUGGA [Same State NG1 - WT Aptamer 2D]” are 27.4 nM and 170 nM.
The corresponding values for “CCCUUCAGAAGAGGGACAUGAGGAUCACCCAUGUAGGCUGCACAGGAUAUCGAUCGGAGGCGGUACGAGAAGGGUGACGUCAUU [Soedgege]” are 168 nM and 79.3 nM.
The corresponding values for “CCGGAAACGGGUAGCUGACAUGAGGAUCACCCAUGUGAAUCUGAGGAUAUGGAUGGUAAUUCCAUCCAGAAGGCAGUCAGCUAC [Mat - Same State NG 3 - JL Mod - D82]” are 59.1 nM and 551 nM.
“CUGGUUGUCGUAGGAUAUGUAGGAUAUUCCUACAUGAGGAUCACCCAUGUUCGCAUGGAAGAAGGACAGAAGGACGAUGACCAG [salish99_SSNG2_013 #endbits investigation] (puzzle (switch architecture): Same State NG 2)”: the “apparent KD of MS2 coat protein” value amounted to 9.22 nM in the series with MS2 coat protein [2] (input ligand: FMN 200 uM) and 1320 nM in the series with MS2 coat protein [2] (input ligand: none).
Take “CUUACUUUGUAGAAGGGUGACAUGAGGAUCACCCAUGUGCGUCGCCUGGAAGACCAGGGUACGCCACAGGAUAUACAAAGUAAG [Gesoesla] (puzzle (switch architecture): Inverted Same State NG 2)”: the results for the “apparent KD of MS2 coat protein” value in the series on MS2 coat protein [2] (input ligand: FMN 200 uM) and in the series with MS2 coat protein [2] (input ligand: none) were 113 nM and 119 nM, respectively.
On to “GAAAUAUAGUCAGGAUAUCAGGACAUGAGGAUCACCCAUGUACUGAAUGGGCUGGUGAAAAGAGAUGAGAAGGGACACACUAGA [EternaBot874] (puzzle (switch architecture): Exclusion NG 2)”, for which the “apparent KD of MS2 coat protein” value in the series with MS2 coat protein [2] (input ligand: FMN 200 uM) is 5.79 nM.
Consider “GCAGCUAAUGCAGGAUAUCAGCACGUGUAGUGCUGAGAAGGGCACAUGAGGAUCACCCAUGUGAUCAAUUAAUAUUAAUGCUGC [jl-eng1-3.00 #ENG1/11-B3_NECK] (puzzle (switch architecture): Exclusion NG 1)”, for which the “apparent KD of MS2 coat protein” value in the series with MS2 coat protein [2] (input ligand: FMN 200 uM) was 41.6 nM; in the series on MS2 coat protein [2] (input ligand: none), 13 nM.
The corresponding values for “GCAGCUAAUGCAGGAUAUCAGCACGUGUAGUGCUGAGAAGGGCACAUGAGGAUUCUGACUGUGAUCAAUUAAUAUUAAUGCUGC [salish99#hingeEx3_55-58_005] (puzzle (switch architecture): Exclusion NG 1)” are 14.8 nM and 29.2 nM.
With “GCCAUCGCAUGAGGAUAUGCUCGGGUUUCCCGAGCAGAAGGCAUGUCAUAAGACAUGAGGAUCACCCAUGUAGUUAAGAUGGCA [#HiddenHairpinInALoop - Mat - Same State NG 1 - JL mod - D3] (puzzle (switch architecture): Same State NG 1)”, the “apparent KD of MS2 coat protein” value worked out at 12.7 nM in the series with MS2 coat protein [2] (input ligand: FMN 200 uM) and 289 nM in the series on MS2 coat protein [2] (input ligand: none).
For “GGAGAAACAUGAGGAUCACCCAUGUAGGAUAUCGGGCCCGGGCCCGGCGAAAGCCGGGCCCGGGACGAGAAGGGCGUAAACACC [#LOL] (puzzle (switch architecture): Small Loop Exclusion NG 3)”, the “apparent KD of MS2 coat protein” value in the series with MS2 coat protein [2] (input ligand: FMN 200 uM) came out at 8.72 nM; with MS2 coat protein [2] (input ligand: none), 8.74 nM.
The corresponding values for “GGCAGCACUUAGAAGGGAGUGCGAUAAUCGCACUCAGGAUAUGAGGAUCACCCAUAUCAAGCUGCCACUGAGGCAAAGCCUCAG [#SharedSequence - IEx NG 4-1] (puzzle (switch architecture): Inverted Exclusion NG 1)” are 9.42 nM and 10.6 nM.
The corresponding values for “GGGUACAUCGGAGGAUAUCAUGUAAAUACAUGAGGAUCACCCAUGUCGAUGGAGACAUCGGAGAUUGAGAAGGCCGAUGUACCG (puzzle (switch architecture): Same State NG 2)” are 8.42 nM and 159 nM.
The matching figures for “GGGUACAUCGGAGGAUAUCAUGUAAAUACAUGAGGAUCACCCAUGUCGAUGGAGACAUGGGAGAUUGAGAAGGCCGAUGUACCG (puzzle (switch architecture): Same State NG 2)”: 31.7 nM and 22.5 nM.
Take “GGUCGUCACAUUAACAUGAGGAUCACCCAUGUCAAAAGACAUGAGGAUAUGCAUCCUAAUUGGAUGCAGAAGGCAUGGACGACC (puzzle (switch architecture): Same State NG 3)”: the “apparent KD of MS2 coat protein” value amounted to 12.5 nM in the series on MS2 coat protein [2] (input ligand: FMN 200 uM) and 216 nM in the series with MS2 coat protein [2] (input ligand: none).
The matching figures for “GUUGGAUUUCAGAAGGGCUCCAGCAAAGCUGGAGCAGGAUAUGAGGAUCACCCAUAUCAAUCUCCAGAAUUGAUAUGAAUCAAU [#SharedSequence - IExNG1: 9-1] (puzzle (switch architecture): Inverted Exclusion NG 1)”: 317 nM and 29.2 nM.
The corresponding values for “UAAAUAAAUCCUAGAGGAUCACCCUAGGAUAUCACCGUCGAGGUGCCAUAAUGGCACCUCGACGGUGAGAAGGAGGAAAAUAAA [#SharedSequence - SLExNG3: 4] (puzzle (switch architecture): Small Loop Exclusion NG 3)” are 6.64 nM and 6.46 nM.
Consider “UAAUCUCGAGCCGACGGGAGAUUACAUGAGGAUCACCCAUGUGAGGAUAUCCCUGAGAAGACGGCGGAGAAGGCACUGGGUAGG [Diraoran] (puzzle (switch architecture): Exclusion NG 3)”, for which the figures for the “apparent KD of MS2 coat protein” value in the series with MS2 coat protein [2] (input ligand: FMN 200 uM) and with MS2 coat protein [2] (input ligand: none) were 18.3 nM and 9.79 nM, respectively.
In the case of “UAUAAUCUUUAAGGAUAUCAGUGGCUUUGCCACUGAGAAGGUGAGGAUCACCCACCUACGUGACCCUGGUUUCAGGGUCACGAU [#AddUracilToBrourdLoops 10 - Jieux - Exclusion NG1] (puzzle (switch architecture): Exclusion NG 1)”, the “apparent KD of MS2 coat protein” value is 11.6 nM with MS2 coat protein [2] (input ligand: FMN 200 uM) and 10 nM in the series with MS2 coat protein [2] (input ligand: none).
“UAUUAUAUGGAGAAGGACAUGAGGAUCACCCAUGUCGCCGGGCCCGGGAAACCGGGCCCGGCCAUGUAGGAUAUCCAUAUGGUA [#This is a good prank 6] (puzzle (switch architecture): Inverted Exclusion NG 2)”: the “apparent KD of MS2 coat protein” value in the series with MS2 coat protein [2] (input ligand: FMN 200 uM) was determined as 5.41 nM; with MS2 coat protein [2] (input ligand: none), 4.78 nM.
Consider “UCAGUAGAGUCAGGAUAUACAAAAGGCGAUCCAUACAUGAGGAUCACCCAUGUAGAAGGGACUCUACUGUAAGUCGGAAACGAC [#StaticStemDeletion - Eli x2 4.003] (puzzle (switch architecture): Small Loop Exclusion NG 1)”, for which the “apparent KD of MS2 coat protein” value was determined as 11.6 nM in the series with MS2 coat protein [2] (input ligand: FMN 200 uM) and 165 nM in the series on MS2 coat protein [2] (input ligand: none).
With “UCAUUUAUCACAGGAUAUAUUAGUAUACAGUUGUUUGGUUAUUACAUAUUAAUAGAAGGGUGAAACAUGAGGAUCACCCAUGUA [S-loop S-stateNG1 03] (puzzle (switch architecture): Small Loop Same State NG 1)”, the “apparent KD of MS2 coat protein” value with MS2 coat protein [2] (input ligand: FMN 200 uM) came out at 113 nM; in the series on MS2 coat protein [2] (input ligand: none), 367 nM.
“UCUUAAUUGUAGAAGGGUGACAUGAGGAUCACCCAUGUGCACGCGCGAUUUACGGCGCGCGUGCCACAGGAUAUACAGUUGGGU [Erinquve] (puzzle (switch architecture): Inverted Same State NG 2)”: the “apparent KD of MS2 coat protein” value in the series with MS2 coat protein [2] (input ligand: FMN 200 uM) came to 12.1 nM; in the series on MS2 coat protein [2] (input ligand: none), 41.1 nM.
For the sequence “UUUAGUUUGUAGAAGGGUGACAUGAGGAUCACCCAUGUGCGUCGCCUGAAAGACCAGGGUACGCCACAGGAUAUACAAAGUAAA [Tiveedbila] (puzzle (switch architecture): Inverted Same State NG 2)”, the entries for the “apparent KD of MS2 coat protein” value in the series with MS2 coat protein [2] (input ligand: FMN 200 uM) and in the series with MS2 coat protein [2] (input ligand: none) were 76.8 nM and 39.6 nM, respectively.
